Ends that are not written are not given here.
B1: Recombinant rat HRF (IgE-dependent histamine-releasing factor) (ligand, UniProt P63029 1-172, looked up)
chain: MIIYRDLISHDELFSDIYKIREIADGLCLEVEGKMVSRTEGAIDDSLIGGNASAEGPEGEGTESTVVTGVDIVMNHHLQETSFTKEAYKKYIKDYMKSLKGKLEEQKPERVKPFMTGAAEQIKHILANFNNYQFFIGENMNPDGMVALLDYREDGVTPFMIFFKDGLEMEKC
notes: Expressed in E. coli from pRSET-A and purified on a Ni column; also called recombinant HRF protein; translationally controlled tumor protein; not shown: N-terminal His-tag leader of the pRSET-A vector

Tests used:
[1] = target: B1; assay: competition ELISA on HRF-coated wells, peptide added before phage ph2 (1/25 dilution), anti-M13-HRP
Method: (§1) Also, as a negative control, random peptide (ran, amino acid sequence: LMEGCRA) was synthesized. To the wells coated with HRF was added each 30 μl of the peptide solution serially diluted in 6% BSA/PBS from 1000 nM (1000, 100, 10, 1, 0.1, 0.01, 0.001 nM) and the solution was allowed to stand at room temperature for 30 minutes. The 1/25-fold diluted phage solution was added thereto and the whole solution was further allowed to stand for 2 hours. The solution was washed five times with PBST and then, each 100 μl of HRP-conjugated anti-M13 antibodies were added thereto and then, the resulting mixture was allowed to stand for 1 hour. The mixture was washed 6 times with PBST and once with PBS, and thereto was added each 100 μl of peroxydase substrate solution to examine the competition. It can be seen from the above figures that both of the synthetic peptides p2 and p4 bind to HRF competitively with phage clones ph2 and ph4.

[2] = target: B1; assay: competition ELISA on HRF-coated wells against phage ph2, anti-M13-HRP
Method: as §1
b) In order to test whether or not p1, p2 and p4 bind to the identical site on HRF, the wells were coated with HRF according to the substantially same procedure as in the above a). As shown FIG. 14c, p1, p2 and p4 bound to the identical site on HRF.

[3] = target: B1; assay: competition ELISA on HRF-coated wells, peptide added before phage ph4 (1/25 dilution), anti-M13-HRP
Method: as §1

[4] = target: T1, BSA (bovine, UniProt P02769); assay: phage ELISA on coated wells, anti-M13-HRP
T1 construct: control coating of the ELISA wells; also called bovine serum albumin
T1 sequence (P02769 25-607 limits assumed): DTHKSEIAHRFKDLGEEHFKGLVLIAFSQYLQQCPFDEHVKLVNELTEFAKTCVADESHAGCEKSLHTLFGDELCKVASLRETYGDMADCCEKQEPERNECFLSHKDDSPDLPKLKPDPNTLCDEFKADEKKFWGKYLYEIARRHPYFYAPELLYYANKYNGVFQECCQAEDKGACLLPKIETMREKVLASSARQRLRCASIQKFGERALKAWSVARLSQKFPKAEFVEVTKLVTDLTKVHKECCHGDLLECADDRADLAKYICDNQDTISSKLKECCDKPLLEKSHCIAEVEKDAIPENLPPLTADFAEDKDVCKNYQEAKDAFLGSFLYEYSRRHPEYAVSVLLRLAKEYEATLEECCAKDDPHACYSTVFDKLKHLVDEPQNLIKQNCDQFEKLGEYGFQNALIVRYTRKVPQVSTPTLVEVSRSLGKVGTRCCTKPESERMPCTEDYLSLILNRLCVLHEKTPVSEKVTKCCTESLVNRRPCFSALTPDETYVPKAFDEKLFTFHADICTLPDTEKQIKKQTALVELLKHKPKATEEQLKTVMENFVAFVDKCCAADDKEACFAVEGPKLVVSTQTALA
Method: That is, the phage plaques were transferred to 1 ml of ER2537 culture solution cultivated in SB medium (OD₆₀₀=0.5˜1) and then, cultured in 37° C. incubator (rpm 250) for 5 hours. Each 100 μl of the culture solution was added to 900 μl of SB medium and cultured overnight. The culture solution was centrifuged twice at 14,000 rpm for 5 minutes per centrifugation and the obtained supernatant was used for ELISA.
To plastic wells, each of which was coated with HRF or BSA (control), 50 μl of a solution obtained by diluting each isolated phage solution with the equivalent amount of 6% BSA/PBS, and the resulting mixture was allowed to stand for 2 hours. After washing five times with PBST, 100 μl of HRP-conjugated anti-M13 antibodies (Pharmacia) diluted in 3% BSA/PBS with the ratio of 1:5000 were added thereto and the whole was allowed to stand for 1 hour. After washing six times with PBST and then, once with PBS, 100 μl of peroxydase substrate solution was added thereto. The chromogenicity was measured using ELISA reader at 405 nm. From FIG. 12, it can be seen that the phages ph1, ph2 and ph4, especially ph2 and ph4, specifically bind to HRF.

[5] = target: T2, (Na,K)ATPase as flowed in the Biacore analysis; assay: Biacore (SPR); HRF immobilised on CM5 sensor chip, (Na,K)ATPase flowed
T2 construct: domain: large cytoplasmic loop; also called (Na,K)ATPase large cytoplasmic loop
Method: Recombinant rat HRF was immobilized on CM5 sensor chip at a concentration of […] in pH 4.0, 10 mM acetate and then, corrected by flowing HBS buffer (0.01 M Hepes, pH 7.4, 0.15 M NaCl, 3 mM EDTA, 0.005% surfactant P20). […] by flowing 50 mM NHS (N-hydroxysuccinimide) and 200 mM EDC(N-ethyl-N-(3-[…])carbodiimide). The binding affinity was measured by flowing (Na,K)ATPase.

Binder | IC50 (read off the curve) [2] | binding result [4] | other results
WYVYPSM [synthetic heptapeptide p2] | – | – | IC50 (read off the curve) [1]: ~40 nM
WEFPGWM [synthetic heptapeptide p4] | ~20 nM | – | IC50 (read off the curve) [3]: ~10 nM
LVTYPLP [synthetic heptapeptide p1] | ~20 nM | – | –
WYVYPSM (also: displayed on phage coat protein, Whole phage particle in the assay; also called ph2 clone; not shown: phage coat protein of the heptamer library (New England Biolabs); linker and coat protein not described) [phage ph2 displaying peptide p2] | – | no binding | –
WEFPGWM (also: displayed on phage coat protein, Whole phage particle in the assay; not shown: phage coat protein of the heptamer library (New England Biolabs); linker and coat protein not described) [phage ph4 displaying peptide p4] | – | no binding | –
B1 | – | – | Kd [5]: 850 nM

From patent US20020095023A1 (published 2002)
